Reference: patent US20230103584A1 (BLACK BELT THERAPEUTICS, published 2023)
Values belong to the molecule of their own block, whether it stands above or below them.

What was measured:
[1] = target: Recombinant, Histidine-tagged extracellular domain of human CD38 (human) (UniProt P28907); assay: ForteBio BLI
[2] = target: T1, Human CD38 expressed on cells (Daudi, Raji, Jurkat, human PBMC/T cells, Tregs, HEK-293T transfectants) (human, UniProt P28907 1-300); assay: cell-based or functional assay
T1 sequence: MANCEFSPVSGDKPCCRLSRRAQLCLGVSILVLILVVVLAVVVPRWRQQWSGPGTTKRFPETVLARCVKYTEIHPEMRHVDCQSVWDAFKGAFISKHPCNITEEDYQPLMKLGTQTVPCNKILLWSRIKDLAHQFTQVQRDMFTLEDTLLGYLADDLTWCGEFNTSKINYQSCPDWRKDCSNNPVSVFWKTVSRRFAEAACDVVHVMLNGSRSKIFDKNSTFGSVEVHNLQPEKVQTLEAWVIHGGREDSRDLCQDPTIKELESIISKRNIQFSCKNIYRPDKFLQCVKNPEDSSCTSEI

[3] = target: T1, Human CD38 expressed on cells (Daudi, …); assay: cell-based or functional assay; remark: listed apart in the source
[4] = target: T1, Human CD38 expressed on cells (Daudi, …); assay: cell-based or functional assay; remark: listed apart in the source
[5] = target: T1, Human CD38 expressed on cells (Daudi, …); assay: cell-based or functional assay; remark: listed apart in the source
[6] = target: T2, Cynomolgus monkey CD38 expressed on T cells / PBMC (Cynomolgus monkey, UniProt Q5VAN0 1-301); assay: flow cytometry on cynomolgus cells, gated on CD4-positive cells, secondary antibody staining
T2 construct: whole, on cells; also called cyno T cells; cynomolgus pan T cells
T2 sequence (looked up): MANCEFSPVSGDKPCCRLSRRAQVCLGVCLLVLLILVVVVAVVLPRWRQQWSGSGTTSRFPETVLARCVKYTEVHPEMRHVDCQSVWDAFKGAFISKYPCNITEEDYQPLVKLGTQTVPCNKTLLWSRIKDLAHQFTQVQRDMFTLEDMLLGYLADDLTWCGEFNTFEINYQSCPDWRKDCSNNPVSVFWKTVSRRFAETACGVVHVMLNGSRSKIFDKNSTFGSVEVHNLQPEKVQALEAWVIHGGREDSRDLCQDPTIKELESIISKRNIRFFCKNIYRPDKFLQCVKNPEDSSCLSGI

[7] = target: T2, Cynomolgus monkey CD38 expressed on T …; assay: flow cytometry on cynomolgus cells, gated on CD8-positive cells, secondary antibody staining

ADCC Max. % lysis [5]: 44%
B4: aCD38-b-348-m2 (antibody, IgG1, V domains shown)
VH: QLQLQESGPGLVKPSETLSLTCTVSGGSISSSDYYWGWIRQPPGKGLEWIGSIYYSGSTYYNPSLKSRVTISVDTSKNQFSLKLSSVTAADTAVYYCARGQYSSGWYAYPFDMWGQGTMVTVSS
VL: EIVLTQSPGTLSLSPGERATLSCRASQSVRSSYLAWYQQKPGQAPRLLIYGASSRATGIPDRFSGSGSGTDFTLTISRLEPEDFAVYYCQQDSNVYTFGGGTKVEIK

ADCC Max. % lysis [5]: 38%
B5: aCD38-b-348-m1 (antibody, IgG1, V domains shown)
VH: QLQLQESGPGLVKPSETLSLTCTVSGGSISSSDYYWGWIRQPPGKGLEWIGSIYYSGSTYYNPSLKSRVTISVDTSKNQFSLKLSSVTAADTAVYYCARGQYSSGWYAYPFDMWGQGTMVTVSS
VL: EIVLTQSPGTLSLSPGERATLSCRASQSVRSSYLAWYQQKPGQAPRLLIYGASSRATGIPDRFSGSGSGTDFTLTISRLEPEDFAVYYCQQEANVYTFGGGTKVEIK

The next lines start with the molecule.

Molecule: IB4, reference monoclonal agonistic mouse anti-human CD38 antibody
Kd [1]: 9 nM

B1: aCD38-b-348 (human IgG1) (antibody, V domains shown)
VH: QLQLQESGPGLVKPSETLSLTCTVSGGSISSSDYYWGWIRQPPGKGLEWIGSIYYSGSTYYNPSLKSRVTISVDTSKNQFSLKLSSVTAADTAVYYCARGQYSSGWYAYPFDMWGQGTMVTVSS
VL: EIVLTQSPGTLSLSPGERATLSCRASQSVRSSYLAWYQQKPGQAPRLLIYGASSRATGIPDRFSGSGSGTDFTLTISRLEPEDFAVYYCQQDGNVYTFGGGTKVEIK
notes: First made as IgG in yeast
ADCC EC50, target Daudi cells (experiment 6) [2]: 0.00032 µg/mL | ADCC EC50, target Daudi cells (experiment 7) [2]: 0.0008 µg/mL | ADCC EC50, target Daudi cells (experiment 8) [2]: 0.00042 µg/mL | CDC EC50, 10% complement, target Daudi cells (experiment 15) [3]: 0.17 µg/mL | CDC EC50, 10% complement, target Daudi cells (experiment 16) [3]: 0.34 µg/mL | CDC EC50, 10% complement, target Daudi cells (experiment 17) [3]: 0.26 µg/mL | CDC EC50, 10% complement, target Raji cells [4]: 0.3 µg/mL | CDC EC50, 10% complement, target Raji cells (repeat) [4]: 0.17 µg/mL | ADCC Max. % lysis [5]: 44% | EC50 (read off the curve) [6]: ~0.9 µg/mL | EC50 (read off the curve) [7]: ~0.9 µg/mL

B2: aCD38-b-348-m3 (antibody, IgG1, V domains shown)
VH: QLQLQESGPGLVKPSETLSLTCTVSGGSISSSDYYWGWIRQPPGKGLEWIGSIYYSGSTYYNPSLKSRVTISVDTSKNQFSLKLSSVTAADTAVYYCARGQYSSGWYAYPFDMWGQGTMVTVSS
VL: EIVLTQSPGTLSLSPGERATLSCRASQSVRSSYLAWYQQKPGQAPRLLIYGASSRATGIPDRFSGSGSGTDFTLTISRLEPEDFAVYYCQQDANVYTFGGGTKVEIK
ADCC Max. % lysis [5]: 39%

B3: aCD38-b-348-m4 (antibody, IgG1, V domains shown)
VH: QLQLQESGPGLVKPSETLSLTCTVSGGSISSSDYYWGWIRQPPGKGLEWIGSIYYSGSTYYNPSLKSRVTISVDTSKNQFSLKLSSVTAADTAVYYCARGQYSSGWYAYPFDMWGQGTMVTVSS
VL: EIVLTQSPGTLSLSPGERATLSCRASQSVRSSYLAWYQQKPGQAPRLLIYGASSRATGIPDRFSGSGSGTDFTLTISRLEPEDFAVYYCQQEGNVYTFGGGTKVEIK
ADCC Max. % lysis [5]: 38%
